Patent publication CN111848803A

Assays:
[1] = target: GPC3ΔGPI-FLAG重组蛋白 (Homo sapiens (Human)) (UniProt P51654); experiment: ELISA on coated GPC3ΔGPI-FLAG after 2 h treatment of the antibody at pH 2
[2] = target: GPC3ΔGPI-FLAG重组蛋白 (Homo sapiens (Human)) (UniProt P51654); experiment: ELISA on coated GPC3ΔGPI-FLAG after 2 h treatment of the antibody at pH 10
[3] = target: mCherry-GPC3 (on stably expressing HEK293T cells) (UniProt P51654); experiment: immunofluorescence colocalisation on HEK293T cells expressing mCherry-GPC3

HN3-hFc融合抗体 (Fc fusion)
抗原结合能力下降 (A450 against pH 7), antibody treated at pH 2 [1]: 47.9%
抗原结合能力下降 (A450 against pH 7), antibody treated at pH 10 [2]: 28.2%

B1: 纳米抗体G10 (G10-His, GPC3 nanobody) (VHH, not shown: small tags and cut ends)
VHH: QVQLVESGGALVQPGGSLRLSCAASGMTGIFWRLRWYRQAPGKEREWVCGISQLPTPASYEDSVKGRFTCSRDDARNTVYLQLNSLKPEDTAVYYCAAANVLPGLPAELPIYWGQGTQVTVSS
抗原结合能力下降 (A450 against pH 7), antibody treated at pH 2 [1]: 26.1%
皮尔森相关系数 (Pearson correlation of mCherry and Alexa Fluor 488 signals) [3]: 0.94
抗原结合能力下降 (A450 against pH 7), antibody treated at pH 10 [2]: 14.4%
